Laboratory results reported in publication PMC6548343.

Target: Nucleosomes (Nuc207) with 30 bp linker DNA at both ends
Test: EM 3D reconstruction of the assembled complex; ~30 μg/ml actin/Arp module with a 10-fold molar excess of Nuc207, 2 h at 4°C, 20 mM HEPES pH 8.0, 40 mM KOAc, 5 mM MgCl2, no ATP; two binding states

stoichiometry N: 1
Substance: INO80 N-terminal subcomplex (N.com) (from UniProt P53115 356-691; P60010 1-375; P80428 1-489; Q12386 1-881; P35189 1-244; Q08561 1-116)
